Measured values reported in patent US20210347882A1 (Johns Hopkins, published 2021).

T1: human Resistin (human, UniProt Q9HD89 19-108)
T1 construct: The sandwich ELISA used the R&D kit standard; also called hResistin; huRes
T1 sequence (looked up): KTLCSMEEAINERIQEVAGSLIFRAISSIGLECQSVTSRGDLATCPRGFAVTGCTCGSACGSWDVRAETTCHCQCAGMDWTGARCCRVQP

T2: human Resistin-Like Molecule Beta (human, UniProt Q9BQ08 24-111, limits assumed)
T2 construct: also called hRELMβ; RELMβ
T2 sequence (looked up): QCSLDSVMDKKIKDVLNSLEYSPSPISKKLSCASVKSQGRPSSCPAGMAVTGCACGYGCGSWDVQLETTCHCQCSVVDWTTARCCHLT


Legend:
human Resistin = molecular target: T1, human Resistin; experiment: QC ELISA, hResistin coated 5 µg/well, IgG supernatant, FITC-goat anti-human IgG
Experimental: (§1) As a result, 4 IgGs (Clones 1, 2, 13 and 18) bind to two targets positively. hRELMβ: 0.5 μg/well; hResistin: 5 μg/well; secondary antibody: FITC-goat anti-human IgG pAb.

[1] = molecular target: T2, human Resistin-Like Molecule Beta; experiment: QC ELISA, hRELMβ coated 0.5 µg/well, IgG supernatant, FITC-goat anti-human IgG
Experimental: as §1

binding result (human Resistin) | binding result [1] | Binder
binds | binds | Clone 13 rIgG (antibody, V domains shown, Fully human IgG1 converted from scFv, tested as supernatant of expressing cells; Possibly the same clone as Ab13) VH: EVQLLESGGGLVQPGGSLRLSCAASGFTFSSYAMSWVRQAPGKGLEWVSSIYPQGLRTYYADSVKGRFTISRDNSKNTLYLQMNSLRAEDTAVYYCAKNLAKFDYWGQGTLVTVSS VL: DIQMTQSPSSLSASVGDRVTITCRASQSISSYLNWYQQKPGKAPKLLIYRASTLQSGVPSRFSGSGSGTDFTLTISSLQPEDFATYYCQQPRALPGTFGQGTKVEIKR
binds | binds | Clone 2 rIgG (antibody, V domains shown, Fully human IgG1 converted from scFv, tested as supernatant of expressing cells) VH: EVQLLESGGGLVQPGGSLRLSCAASGFTFSSYAMSWVRQAPGKGLEWVSTITTTGTATWYADSVKGRFTISRDNSKNTLYLQMNSLRAEDTAVYYCAKTLQRFDYWGQGTLVTVSS VL: DIQMTQSPSSLSASVGDRVTITCRASQSISSYLNWYQQKPGKAPKLLIYEASVLQSGVPSRFSGSGSGTDFTLTISSLQPEDFATYYCQQPRSLPMTFGQGTKVEIKR

More lines, now with the values behind:

Binder | binding result (human Resistin) | binding result [1]
Clone 1 rIgG (antibody, V domains shown, Fully human IgG1 converted from scFv, tested as supernatant of expressing cells; Possibly the same clone as Ab1) VH: EVQLLESGGGLVQPGGSLRLSCAASGFTFSSYAMSWVRQAPGKGLEWVSSISQRGRKTLYADSVKGRFTISRDNSKNTLYLQMNSLRAEDTAVYYCAKGLRRFDYWGQGTLVTVSS VL: DIQMTQSPSSLSASVGDRVTITCRASQSISSYLNWYQQKPGKAPKLLIYMASHLQSGVPSRFSGSGSGTDFTLTISSLQPEDFATYYCQQPRSTPLTFGQGTKVEIKR | binds | binds
Clone 18 rIgG (antibody, V domains shown, Fully human IgG1 converted from scFv, tested as supernatant of expressing cells) VH: EVQLLESGGGLVQPGGSLRLSCAASGFTFSSYAMSWVRQAPGKGLEWVSTIHKTGSPTYYADSVKGRFTISRDNSKNTLYLQMNSLRAEDTAVYYCAKSLKYFDYWGQGTLVTVSS VL: DIQMTQSPSSLSASVGDRVTITCRASQSISSYLNWYQQKPGKAPKLLIYRASHLQSGVPSRFSGSGSGTDFTLTISSLQPEDFATYYCQQPRSLPATFGQGTKVEIKR | binds | binds
